B1: AbD05321 (Fab, V domains shown)
VH: QVQLVQSGAEVKKPGSSVKVSCKASGGTFSSHAISWVRQAPGQGLEWMGGIIPIFGMANYAQKFQGRVTITADESTSTAYMELSSLRSEDTAVYYCARYYWKPVLFDFDVWGQGTLVTVSS
VL: DIALTQPASVSGSPGQSITISCTGTSSDIGGNNYVSWYQQHPGKAPKVMIYEVSKRPSGVSNRFSGSKSGNTASLTISGLQAEDEADYYCSSYTMTIFVFGGGTKLTVLG
B2: AbD05322 (Fab, V domains shown)
VH: QVQLVESGGGLVQPGGSLRLSCAASGFTFSNFWMSWVRQAPGKGLEWVSAISYSSSSTYFADSVKGRFTISRDNSKNTLYLQMNSLRAEDTAVYYCARAYRSYFDIWGQGTLVTVSS
VL: DIQMTQSPSSLSASVGDRVTITCRASQSISNWLNWYQQKPGKAPKLLIYNASILQSGVPSRFSGSGSGTDFTLTISSLQPEDFAVYYCQQNYGIPITFGQGTKVEIKR
B3: AbD05444 (Fab, V domains shown)
VH: QVQLVESGGGLVQPGGSLRLSCAASGFTFSSYWLNWVRQAPGKGLEWVSGISSSSSSTFYADGVKGRFTISRDNSKNTLYLQMNSLRAEDTAVYYCARHSYFDYWGQGTLVTVSS
VL: DIQMTQSPSSLSASVGDRVTITCRASQSIVTYLNWYQQKPGKAPKLLIYAASNLQSGVPSRFSGSGSGTDFTLTISSLQPEDFAVYYCQQLYSHPPTFGQGTKVEIKR
B4: AbD05445 (Fab, V domains shown)
VH: QVQLVESGGGLVQPGGSLRLSCAASGFTFSNNAMTWVRQAPGKGLEWVSLISYSGSSTYYADSVKGRFTISRDNSKNTLYLQMNSLRAEDTAVYYCARLGGNPLGPFDHWGQGTLVTVSS
VL: DIALTQPASVSGAPGQRVTISCTGTSSDIGGYSYVSWYQQHPGKAPKLMIYGVTKRPSGVSNRFSGSKSGNTASLTISGLQAEDEADYYCQSWATHPIRVFGGGTKLTVLG
B5: AbD05320 (Fab, V domains shown)
VH: QVQLVQSGAEVKKPGESLKISCKGSGYSFTNYWISWVRQAPGKGLEWMGIIDPGDSDTNYSPSFQGQVTISADKSISTAYLQWSSLKASDTAMYYCARVNYYNFDYWGQGTLVTVSS
VL: DIVLTQSPATLSLSPGERATLSCRASQSVTSNLAWYQQKPGQAPRLLIYGNVSRRATGVPARFSGSGSGTDFTLTISSLEPEDFATYYCQQYGDYPATFGQGTKVEIKR
B6: AbD05446 (Fab, V domains shown)
VH: QVQLVESGGGLVQPGGSLRLSCAASGFTFNSNSMSWVRQAPGKGLEWVSGISGIGSNTNYADSVKGRFTISRDNSKNTLYLQMNSLRAEDTAVYYCARVHYYSGVVFDFWGQGTLVTVSS
VL: DIELTQPPSVSVAPGQTARISCSGDNLRTQYASWYQQKPGQAPVLVIYNKNKRPSGIPERFSGSNSGNTATLTISGTQAEDEADYYCAAWDSGSIVFGGGTKLTVLG

What follows are binders tested against T1, DV2 NS2B-NS3pro construct, wild type (strain 16681) (WNV strain of the DV serotype 2 (DV2; …, UniProt P29990 1393-1440; P29990 1476-1687) (assay: ELISA on coated construct).
T1 construct: range 1393-1440;range 1476-1687

| Binder | binding result |
| --- | --- |
| B1 | no binding (tested: 2 µg/ml antibody) |
| B2 | no binding (tested: 2 µg/ml antibody) |
| B3 | no binding (tested: 2 µg/ml antibody) |
| B4 | no binding (tested: 2 µg/ml antibody) |
| B5 | no binding (tested: 2 µg/ml antibody) |
| B6 | no binding (tested: 2 µg/ml antibody) |
